Source: patent US20160176924A1 (UNIVERSITY OF COPENHAGEN, published 2016)

Molecular target: T1, Tat-NR2B (3)
T1 construct: also called Tat-N2B (3); 20-mer Tat-NR2B peptide
Assay: FP competition, fluorescent CRIPT probe

B1: HIS-PDZ3 protein (PSD-95 PDZ3, residues 309-401, with tag MHHHHHPRGS) (other)
chain: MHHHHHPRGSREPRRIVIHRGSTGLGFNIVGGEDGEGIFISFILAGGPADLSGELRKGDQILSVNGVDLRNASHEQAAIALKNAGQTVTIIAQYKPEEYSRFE
binding result: no binding
